From paper PMC7182274 (PLoS Pathogens, 2020) come the findings set out here.

The target in experiment [1] is F. novicida DnaK (F. novicida).
The next experiment deals with T1, ΔNClpB (Francisella tularensis, UniProt A0Q8N0).
T1 construct: gene clpB

For the compound “F. novicida ClpB (wild-type) (natural protein)”, the refolding of urea-denatured firefly luciferase with DnaK, DnaJ, GrpE and ATP in experiment [1] was 83%.
As to `Nc1ncnc2c1ncn2[C@@H]1O[C@H](COP(=O)(O)OP(=O)(O)OP(=O)(O)O)[C@@H](O)[C@H]1O` [ATP], the ATPase activity result at ΔNClpB is reported as “ΔNClpB had a slightly increased basal ATPase activity in the absence of casein”.
